Source: PMC10425845 (The EMBO Journal, 2023)
Read-outs that look alike come from different tables or passages of the source. Values belong to the molecule of their own block, whether it stands above or below them.

B4: Strep-REC114 (full-length mouse REC114 with a single N-terminal Strep-tag) (natural protein, UniProt Q9CWH4 1-259, looked up)
chain: MSEAGNVASGLGLPGEVSQWSLKRYGRFMLLDNVGSPGPSSEAAAAGSPTWKVFESSEESGSLVLTIVVSGHFFISQGQTLLEGFSLIGSKNWLKIVRRMDCLLFGTTIKNKSRMFRVQFSGESKEEALERCCGCVQTLAQYVTVQEPDSTTQELQQSQGPREAGESQGKDPLQQGPSLTLEQHVCMAAGAGVLQERTSVTHRAQSILAPEKLTLAYEGSSWGTEELGPFLRLCLMDQNFPAFVEEVEKELKKITGLRN

What was measured:
[1] = target: Strep-REC114-His-MEI4 1-127 complex (mouse) (UniProt Q9CWH4); assay: SEC-MALS
[2] = target: Strep-REC114-His-MEI4 1-127 complex (mouse) (UniProt Q9CWH4); assay: native MS
[3] = target: REC114 226-254-MEI4 1-43 minimal complex (mouse) (UniProt Q9CWH4); assay: AUC
[4] = target: REC114 226-254-MEI4 1-43 minimal complex (mouse) (UniProt Q9CWH4); assay: AUC; remark: listed apart in the source
[5] = target: B4; assay: SEC
[6] = target: the molecule itself; assay: SEC-MALS
[7] = target: T1, MEI4 1-43 (untagged) (mouse, UniProt Q8BRM6 1-43); assay: AUC
T1 chain (looked up): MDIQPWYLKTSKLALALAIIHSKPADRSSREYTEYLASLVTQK

[8] = target: Strep-REC114-His-MEI4 1-127 complex (mouse) (UniProt Q9CWH4); assay: ITC
[9] = target: T2, His-Sumo-IHO1 1-281 (mouse, UniProt Q6PDM4 1-281); assay: SEC
T2 sequence (looked up): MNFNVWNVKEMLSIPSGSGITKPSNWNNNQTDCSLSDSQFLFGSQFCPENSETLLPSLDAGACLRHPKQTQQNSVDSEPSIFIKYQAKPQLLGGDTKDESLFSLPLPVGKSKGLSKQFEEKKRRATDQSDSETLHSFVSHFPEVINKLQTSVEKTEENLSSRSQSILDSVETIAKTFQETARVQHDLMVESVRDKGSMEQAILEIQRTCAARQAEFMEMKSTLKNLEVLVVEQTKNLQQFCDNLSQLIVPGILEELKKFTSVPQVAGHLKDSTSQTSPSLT

[10] = target: T3, His-MBP-IHO1 1-281 (mouse, UniProt Q6PDM4 1-281); assay: SEC
T3 sequence (looked up): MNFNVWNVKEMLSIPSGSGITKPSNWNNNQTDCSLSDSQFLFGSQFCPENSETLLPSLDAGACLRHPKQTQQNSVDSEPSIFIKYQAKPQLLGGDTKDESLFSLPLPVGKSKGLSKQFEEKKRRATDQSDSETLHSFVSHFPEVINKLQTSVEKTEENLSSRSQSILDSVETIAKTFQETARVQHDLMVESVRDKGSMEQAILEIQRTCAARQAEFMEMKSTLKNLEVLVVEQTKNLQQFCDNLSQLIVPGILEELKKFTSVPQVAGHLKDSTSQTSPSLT

[11] = target: the molecule itself; assay: SEC-MALS; remark: listed apart in the source
[12] = target: T4, His-MEI4 1-127 (mouse, UniProt Q8BRM6 1-127); assay: SEC-MALS
T4 sequence (looked up): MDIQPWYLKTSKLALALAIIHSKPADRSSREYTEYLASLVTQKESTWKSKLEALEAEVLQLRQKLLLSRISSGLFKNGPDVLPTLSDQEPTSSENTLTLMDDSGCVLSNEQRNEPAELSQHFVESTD

[13] = target: T4, His-MEI4 1-127; assay: native MS
[14] = target: T5, Strep-REC114 1-159 (PH domain) (mouse, UniProt Q9CWH4 1-159); assay: ITC
T5 sequence (looked up): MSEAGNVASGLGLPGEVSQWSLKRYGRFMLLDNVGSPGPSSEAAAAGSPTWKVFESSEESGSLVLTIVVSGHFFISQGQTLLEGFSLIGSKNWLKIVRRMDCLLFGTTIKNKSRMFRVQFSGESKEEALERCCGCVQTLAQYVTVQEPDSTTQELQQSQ

[15] = target: the molecule itself; assay: SEC-MALS; remark: listed apart in the source
[16] = target: B4; assay: pull-down

stoichiometry N [1]: 2 | stoichiometry N [2]: 2
Molecule: Strep-REC114-His-MEI4 1-127 complex (from UniProt Q9CWH4 1-259; Q8BRM6 1-127)

stoichiometry N [3]: 2 | stoichiometry N [4]: 2
Molecule: REC114 226-254-MEI4 1-43 minimal complex (from UniProt Q9CWH4 226-254; Q8BRM6 1-43)

binding result [5]: binds
B1: TOPOVIBL 452-579 (domain or fragment, mouse, UniProt J3QMY9 452-579, looked up)
chain: SCDTEQHLTPEKNISAQNTKDQHKNIAQEFPEESIGQAENKRPKRGSPNHGREESRVLGSARDRSPPKSATRDRELTEVSLTARGSQTQAAHGRAQAAEAASPAGGLEDLWLQEVSNLSEWLNPGHRS

B2: IHO1 125-281 (domain or fragment, mouse, UniProt Q6PDM4 125-281, looked up)
chain: ATDQSDSETLHSFVSHFPEVINKLQTSVEKTEENLSSRSQSILDSVETIAKTFQETARVQHDLMVESVRDKGSMEQAILEIQRTCAARQAEFMEMKSTLKNLEVLVVEQTKNLQQFCDNLSQLIVPGILEELKKFTSVPQVAGHLKDSTSQTSPSLT
stoichiometry N [6]: 4

stoichiometry N [7]: 2
Molecule: ELGPFLRLCLMDQNFPAFVEEVEKELKKI (domain or fragment, mouse, UniProt Q9CWH4 226-254, looked up) [REC114 226-254 (untagged)]

Kd [8]: 26.9 µM
B3: IHO1 1-281 (domain or fragment, mouse, UniProt Q6PDM4 1-281, looked up)
chain: MNFNVWNVKEMLSIPSGSGITKPSNWNNNQTDCSLSDSQFLFGSQFCPENSETLLPSLDAGACLRHPKQTQQNSVDSEPSIFIKYQAKPQLLGGDTKDESLFSLPLPVGKSKGLSKQFEEKKRRATDQSDSETLHSFVSHFPEVINKLQTSVEKTEENLSSRSQSILDSVETIAKTFQETARVQHDLMVESVRDKGSMEQAILEIQRTCAARQAEFMEMKSTLKNLEVLVVEQTKNLQQFCDNLSQLIVPGILEELKKFTSVPQVAGHLKDSTSQTSPSLT
stoichiometry N [6]: 4

Molecule: B4
binding result [9]: binds | binding result [10]: binds | binding result [11]: binds | stoichiometry N [12]: 2 | stoichiometry N [13]: 1

B5: IHO1 125-261 (domain or fragment, mouse, UniProt Q6PDM4 125-261, looked up)
chain: ATDQSDSETLHSFVSHFPEVINKLQTSVEKTEENLSSRSQSILDSVETIAKTFQETARVQHDLMVESVRDKGSMEQAILEIQRTCAARQAEFMEMKSTLKNLEVLVVEQTKNLQQFCDNLSQLIVPGILEELKKFTS
stoichiometry N [6]: 4

B6: MBP-IHO1 125-261 (MBP joined by a five-residue linker) (domain or fragment, mouse, UniProt Q6PDM4 125-261, looked up)
chain: ATDQSDSETLHSFVSHFPEVINKLQTSVEKTEENLSSRSQSILDSVETIAKTFQETARVQHDLMVESVRDKGSMEQAILEIQRTCAARQAEFMEMKSTLKNLEVLVVEQTKNLQQFCDNLSQLIVPGILEELKKFTS
stoichiometry N [6]: 4

Molecule: GSMEQAILEIQRTCAARQAEFMEMKSTLKNLEVLVVEQTKNLQQFCDNLS (domain or fragment, mouse, UniProt Q6PDM4 196-245, looked up) [IHO1 196-245]
stoichiometry N [6]: 4

Kd [8]: 31.9 µM | Kd [14]: 30.4 µM
Molecule: MNFNVWNVKEMLSIPSGSGITKP (domain or fragment, mouse, UniProt Q6PDM4 1-23, looked up) [His-MBP-IHO1 1-23]

Molecule: ELGPFLRLCLMDQNFPAFVEEVEKELKKI (domain or fragment, mouse, UniProt Q9CWH4 226-254, looked up) [His-MBP-REC114 226-254]
stoichiometry N [15]: 2

binding result [16]: binds
Molecule: MDIQPWYLKTSKLALALAIIHSKPADRSSREYTEYLASLVTQK (domain or fragment, mouse, UniProt Q8BRM6 1-43, looked up) [His-MBP-MEI4 1-43]

Molecule: WGTEEDGPFLRLCLMDQNFPAFVEEVEKELKKITG (domain or fragment, mouse, UniProt Q9CWH4 222-256, looked up) [His-MBP-REC114 222-256 L227D]
binding result [15]: binds
